Laboratory results published in patent US20240261333A1, “NOVEL TARGETS FOR ENHANCING ANTI-TUMOR IMMUNITY” (THE BROAD INSTITUTE, INC., priority 2021, published 2024).

How the values were obtained:
TPI1 = TPI1 (UniProt P60174); experiment: co-IP with anti-FLAG, mass spectrometry; C-FLAG B3GNT2
YBX3 = YBX3 (UniProt P16989); experiment: as above
HNRNPF = HNRNPF (UniProt P52597); experiment: as above
PCMT1 = PCMT1 (UniProt P22061); experiment: as above
RPL10A = RPL10A (UniProt P62906); experiment: as above
SERPINB12 = SERPINB12 (UniProt Q96P63); experiment: as above
HBA1 = HBA1 (UniProt P69905); experiment: as above
SLIRP = SLIRP (UniProt Q9GZT3); experiment: as above
STRAP = STRAP (UniProt Q9Y3F4); experiment: as above
CTSD = CTSD (UniProt P07339); experiment: as above
RPL35A = RPL35A (UniProt P18077); experiment: as above
FABP5 = FABP5 (UniProt Q01469); experiment: as above
ACTR3 = ACTR3 (UniProt P61158); experiment: as above
RPL36 = RPL36 (UniProt Q9Y3U8); experiment: as above
RPL11 = RPL11 (UniProt P62913); experiment: as above
ATP5F1B = ATP5F1B (UniProt P06576); experiment: as above
LYZ = LYZ (UniProt P61626); experiment: as above
RPLP2 = RPLP2 (UniProt P05387); experiment: as above
FLG (human) = FLG (human) (UniProt P20930); experiment: control IP with IgG, lysate of cells with N-FLAG B3GNT2, mass spectrometry
YTHDF2 (human) = biological target: T1, YTHDF2 (human) (UniProt Q9Y5A9); experiment: as above
T1 sequence (looked up): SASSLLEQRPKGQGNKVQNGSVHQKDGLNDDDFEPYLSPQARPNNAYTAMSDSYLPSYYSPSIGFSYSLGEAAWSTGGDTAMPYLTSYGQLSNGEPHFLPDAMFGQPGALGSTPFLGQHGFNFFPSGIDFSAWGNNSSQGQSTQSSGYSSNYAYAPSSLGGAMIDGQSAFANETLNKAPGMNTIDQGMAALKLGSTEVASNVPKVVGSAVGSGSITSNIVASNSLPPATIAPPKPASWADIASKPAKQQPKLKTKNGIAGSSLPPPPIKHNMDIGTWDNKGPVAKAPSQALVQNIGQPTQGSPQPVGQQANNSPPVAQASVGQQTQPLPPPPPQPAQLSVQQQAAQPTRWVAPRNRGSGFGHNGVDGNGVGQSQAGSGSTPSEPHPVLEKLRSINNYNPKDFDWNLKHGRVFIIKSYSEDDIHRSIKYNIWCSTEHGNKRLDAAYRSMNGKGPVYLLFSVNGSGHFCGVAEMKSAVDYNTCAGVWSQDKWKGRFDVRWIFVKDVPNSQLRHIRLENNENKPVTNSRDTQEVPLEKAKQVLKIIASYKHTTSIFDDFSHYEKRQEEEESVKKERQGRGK

MAP4 (human) = MAP4 (human) (UniProt P27816); experiment: as above
RPL38 (human) = RPL38 (human) (UniProt P63173); experiment: as above
S100A7 (human) = S100A7 (human) (UniProt P31151); experiment: as above
SYNCRIP (human) = SYNCRIP (human) (UniProt O60506); experiment: as above
GBF1 (human) = GBF1 (human) (UniProt Q92538); experiment: as above
YBX1 (human) = YBX1 (human) (UniProt P67809); experiment: as above
EIF3A (human) = EIF3A (human) (UniProt Q14152); experiment: as above
RPS14 (human) = RPS14 (human) (UniProt P62263); experiment: as above
RHOT2 (human) = RHOT2 (human) (UniProt Q8IXI1); experiment: as above
SYNM (human) = SYNM (human) (UniProt O15061); experiment: as above
RACK1 (human) = RACK1 (human) (UniProt P63244); experiment: as above
TELO2 (human) = TELO2 (human) (UniProt Q9Y4R8); experiment: as above
PPFIBP1 (human) = PPFIBP1 (human) (UniProt Q86W92); experiment: as above

ATP5F1B, sequence (P06576 48-529 limits assumed): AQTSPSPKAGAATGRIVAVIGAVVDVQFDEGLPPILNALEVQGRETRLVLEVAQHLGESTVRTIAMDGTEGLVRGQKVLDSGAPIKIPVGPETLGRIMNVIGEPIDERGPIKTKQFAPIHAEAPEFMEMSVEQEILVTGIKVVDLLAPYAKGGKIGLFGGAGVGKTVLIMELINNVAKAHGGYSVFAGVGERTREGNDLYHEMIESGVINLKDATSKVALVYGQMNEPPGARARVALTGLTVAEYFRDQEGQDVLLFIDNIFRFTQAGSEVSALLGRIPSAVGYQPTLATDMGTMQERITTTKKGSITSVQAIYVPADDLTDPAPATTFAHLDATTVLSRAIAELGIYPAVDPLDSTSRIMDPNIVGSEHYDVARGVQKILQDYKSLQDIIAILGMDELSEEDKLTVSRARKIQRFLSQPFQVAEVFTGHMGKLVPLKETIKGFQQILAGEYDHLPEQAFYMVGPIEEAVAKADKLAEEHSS
SYNM (human), sequence (O15061 whole entry): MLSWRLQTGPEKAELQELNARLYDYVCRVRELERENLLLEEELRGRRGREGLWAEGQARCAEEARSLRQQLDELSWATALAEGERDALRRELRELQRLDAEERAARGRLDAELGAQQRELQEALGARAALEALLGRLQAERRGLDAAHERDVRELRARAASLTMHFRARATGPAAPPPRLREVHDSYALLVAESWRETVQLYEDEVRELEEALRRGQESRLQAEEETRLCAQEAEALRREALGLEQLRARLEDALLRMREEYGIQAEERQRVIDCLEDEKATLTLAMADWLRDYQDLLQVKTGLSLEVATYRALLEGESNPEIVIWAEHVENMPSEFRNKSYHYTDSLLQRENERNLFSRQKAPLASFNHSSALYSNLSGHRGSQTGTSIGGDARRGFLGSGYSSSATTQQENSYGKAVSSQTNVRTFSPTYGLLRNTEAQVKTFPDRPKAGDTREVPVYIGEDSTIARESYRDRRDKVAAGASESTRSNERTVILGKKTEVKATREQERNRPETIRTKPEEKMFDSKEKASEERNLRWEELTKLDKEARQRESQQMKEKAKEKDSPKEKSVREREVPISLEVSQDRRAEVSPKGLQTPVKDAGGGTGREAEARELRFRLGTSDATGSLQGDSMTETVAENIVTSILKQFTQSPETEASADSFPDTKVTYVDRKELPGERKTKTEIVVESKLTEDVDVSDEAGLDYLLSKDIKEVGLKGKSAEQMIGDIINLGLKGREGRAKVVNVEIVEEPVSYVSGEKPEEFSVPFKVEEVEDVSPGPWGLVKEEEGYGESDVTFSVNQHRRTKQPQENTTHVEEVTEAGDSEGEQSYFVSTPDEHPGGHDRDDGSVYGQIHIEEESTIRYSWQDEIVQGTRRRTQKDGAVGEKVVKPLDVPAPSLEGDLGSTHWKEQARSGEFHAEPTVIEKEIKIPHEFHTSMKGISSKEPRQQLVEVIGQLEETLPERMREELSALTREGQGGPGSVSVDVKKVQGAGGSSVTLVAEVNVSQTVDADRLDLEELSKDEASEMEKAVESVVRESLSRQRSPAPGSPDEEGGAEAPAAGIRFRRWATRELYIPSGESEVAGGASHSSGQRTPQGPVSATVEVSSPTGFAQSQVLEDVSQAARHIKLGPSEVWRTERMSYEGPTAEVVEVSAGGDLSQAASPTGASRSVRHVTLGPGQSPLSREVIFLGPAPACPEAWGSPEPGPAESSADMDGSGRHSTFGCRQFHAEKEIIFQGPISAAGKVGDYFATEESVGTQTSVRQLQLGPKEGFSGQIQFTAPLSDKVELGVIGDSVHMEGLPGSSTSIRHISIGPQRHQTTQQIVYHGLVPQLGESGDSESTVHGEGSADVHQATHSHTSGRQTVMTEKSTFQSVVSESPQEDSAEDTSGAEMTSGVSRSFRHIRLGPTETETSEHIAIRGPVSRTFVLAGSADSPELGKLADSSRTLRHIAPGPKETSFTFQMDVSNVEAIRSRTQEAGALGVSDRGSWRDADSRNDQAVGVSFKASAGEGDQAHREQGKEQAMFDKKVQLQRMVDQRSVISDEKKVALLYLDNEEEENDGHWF
STRAP, sequence (Q9Y3F4 whole entry): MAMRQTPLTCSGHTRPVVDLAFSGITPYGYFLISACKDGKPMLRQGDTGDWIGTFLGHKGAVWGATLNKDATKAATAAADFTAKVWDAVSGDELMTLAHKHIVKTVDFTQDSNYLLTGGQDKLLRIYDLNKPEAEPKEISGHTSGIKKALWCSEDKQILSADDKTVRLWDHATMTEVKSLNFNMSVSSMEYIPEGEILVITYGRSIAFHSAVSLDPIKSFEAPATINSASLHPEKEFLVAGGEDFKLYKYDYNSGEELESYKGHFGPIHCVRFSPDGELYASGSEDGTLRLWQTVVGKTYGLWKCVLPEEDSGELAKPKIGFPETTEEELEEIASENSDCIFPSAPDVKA
YBX1 (human), sequence (P67809 2-324 limits assumed): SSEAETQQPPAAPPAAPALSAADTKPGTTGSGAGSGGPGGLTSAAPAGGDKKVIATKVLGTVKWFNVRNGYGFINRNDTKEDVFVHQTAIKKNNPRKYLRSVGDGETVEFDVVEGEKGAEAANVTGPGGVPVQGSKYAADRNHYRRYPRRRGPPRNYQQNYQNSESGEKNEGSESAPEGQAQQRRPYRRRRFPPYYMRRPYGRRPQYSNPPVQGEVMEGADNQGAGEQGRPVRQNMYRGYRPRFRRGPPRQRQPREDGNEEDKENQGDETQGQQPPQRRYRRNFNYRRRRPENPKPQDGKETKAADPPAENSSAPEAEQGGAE
TELO2 (human), sequence (Q9Y4R8 whole entry): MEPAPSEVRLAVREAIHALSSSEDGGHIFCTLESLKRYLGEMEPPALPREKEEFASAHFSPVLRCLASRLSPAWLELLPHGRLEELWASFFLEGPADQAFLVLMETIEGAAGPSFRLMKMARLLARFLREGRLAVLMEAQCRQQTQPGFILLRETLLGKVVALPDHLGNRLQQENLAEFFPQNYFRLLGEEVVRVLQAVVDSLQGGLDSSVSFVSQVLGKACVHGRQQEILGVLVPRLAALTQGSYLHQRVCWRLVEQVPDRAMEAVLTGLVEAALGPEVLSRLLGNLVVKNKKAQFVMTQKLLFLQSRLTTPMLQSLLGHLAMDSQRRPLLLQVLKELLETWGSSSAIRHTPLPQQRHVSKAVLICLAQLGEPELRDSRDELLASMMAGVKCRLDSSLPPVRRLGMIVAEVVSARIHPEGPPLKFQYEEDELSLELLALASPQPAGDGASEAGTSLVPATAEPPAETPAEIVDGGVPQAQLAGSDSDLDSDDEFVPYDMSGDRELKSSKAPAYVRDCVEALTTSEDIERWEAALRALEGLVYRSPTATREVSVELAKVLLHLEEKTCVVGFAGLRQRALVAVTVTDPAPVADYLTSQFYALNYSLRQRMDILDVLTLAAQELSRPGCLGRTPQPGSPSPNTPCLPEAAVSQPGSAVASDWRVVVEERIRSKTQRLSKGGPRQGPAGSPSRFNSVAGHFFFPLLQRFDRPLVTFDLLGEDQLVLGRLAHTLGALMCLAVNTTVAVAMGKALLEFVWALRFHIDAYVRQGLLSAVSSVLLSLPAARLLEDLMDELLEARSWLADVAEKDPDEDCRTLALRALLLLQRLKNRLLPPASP
RHOT2 (human), sequence (Q8IXI1 whole entry): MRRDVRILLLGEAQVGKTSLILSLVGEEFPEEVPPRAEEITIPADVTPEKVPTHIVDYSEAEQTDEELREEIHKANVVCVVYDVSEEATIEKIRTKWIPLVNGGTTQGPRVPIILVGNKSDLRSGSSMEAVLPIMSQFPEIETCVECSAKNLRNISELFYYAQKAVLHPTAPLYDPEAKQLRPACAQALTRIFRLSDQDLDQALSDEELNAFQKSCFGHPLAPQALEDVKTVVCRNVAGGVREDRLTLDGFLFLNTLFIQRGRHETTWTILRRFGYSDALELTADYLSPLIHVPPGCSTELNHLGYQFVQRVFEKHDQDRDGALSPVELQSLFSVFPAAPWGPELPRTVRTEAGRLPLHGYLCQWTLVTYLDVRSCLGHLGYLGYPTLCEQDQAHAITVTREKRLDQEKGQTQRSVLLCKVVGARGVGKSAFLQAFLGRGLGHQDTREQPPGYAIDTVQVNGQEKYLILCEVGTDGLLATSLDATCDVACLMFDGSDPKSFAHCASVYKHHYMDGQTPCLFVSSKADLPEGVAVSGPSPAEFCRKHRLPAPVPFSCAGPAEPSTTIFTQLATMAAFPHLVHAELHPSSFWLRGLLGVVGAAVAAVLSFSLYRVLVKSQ
RPLP2, sequence (P05387 whole entry): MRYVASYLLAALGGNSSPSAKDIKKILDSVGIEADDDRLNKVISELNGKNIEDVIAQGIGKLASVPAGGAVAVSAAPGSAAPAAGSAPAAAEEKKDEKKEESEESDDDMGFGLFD
FABP5, sequence (Q01469 2-135 limits assumed): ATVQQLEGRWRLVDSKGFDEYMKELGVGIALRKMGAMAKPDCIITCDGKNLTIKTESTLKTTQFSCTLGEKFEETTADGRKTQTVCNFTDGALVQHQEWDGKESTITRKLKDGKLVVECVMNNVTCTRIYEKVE
CTSD, sequence (P07339 65-412 limits assumed): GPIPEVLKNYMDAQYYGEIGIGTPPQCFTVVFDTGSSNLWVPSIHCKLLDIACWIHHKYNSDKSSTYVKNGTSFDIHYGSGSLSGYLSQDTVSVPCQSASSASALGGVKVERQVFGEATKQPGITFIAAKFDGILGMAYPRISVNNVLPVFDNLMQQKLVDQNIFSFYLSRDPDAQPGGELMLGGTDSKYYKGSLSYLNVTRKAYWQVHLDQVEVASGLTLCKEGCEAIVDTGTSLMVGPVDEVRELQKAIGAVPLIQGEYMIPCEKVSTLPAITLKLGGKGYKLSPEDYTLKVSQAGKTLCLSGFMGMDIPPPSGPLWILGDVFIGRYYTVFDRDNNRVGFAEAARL
PCMT1, sequence (P22061 2-227 limits assumed): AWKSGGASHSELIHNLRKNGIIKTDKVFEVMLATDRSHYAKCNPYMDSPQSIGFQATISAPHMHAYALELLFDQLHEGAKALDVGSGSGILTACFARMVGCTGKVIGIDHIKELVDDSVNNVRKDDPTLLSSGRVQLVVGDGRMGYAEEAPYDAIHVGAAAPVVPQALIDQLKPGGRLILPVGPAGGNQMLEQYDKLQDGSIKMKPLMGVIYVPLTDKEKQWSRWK

**Q.** What does the source list for “C-terminal FLAG tagged B3GNT2 (from UniProt Q9NY97 1-397) (enzyme)”?
**A.** co-IP mass spectrometry count (TPI1): 2; co-IP mass spectrometry count (YBX3): 7; co-IP mass spectrometry count (HNRNPF): 7; co-IP mass spectrometry count (PCMT1): 2; co-IP mass spectrometry count (RPL10A): 16; co-IP mass spectrometry count (SERPINB12): 2; co-IP mass spectrometry count (HBA1): 4; co-IP mass spectrometry count (SLIRP): 6; co-IP mass spectrometry count (STRAP): 3; co-IP mass spectrometry count (CTSD): 4; co-IP mass spectrometry count (RPL35A): 6; co-IP mass spectrometry count (FABP5): 8; co-IP mass spectrometry count (ACTR3): 7; co-IP mass spectrometry count (RPL36): 6; co-IP mass spectrometry count (RPL11): 7; co-IP mass spectrometry count (ATP5F1B): 4; co-IP mass spectrometry count (LYZ): 6; co-IP mass spectrometry count (RPLP2): 13

**Q.** For “IgG control (Millipore Sigma 12-371) (antibody)”, which co-IP mass spectrometry count (FLG (human)) is on record?
**A.** The co-IP mass spectrometry count was 20.

**Q.** And the co-IP mass spectrometry count (YTHDF2 (human))?
**A.** The co-IP mass spectrometry count was 4.

**Q.** And the co-IP mass spectrometry count (MAP4 (human))?
**A.** Its co-IP mass spectrometry count is 0.

**Q.** What about the co-IP mass spectrometry count (RPL38 (human)) of the same substance?
**A.** Its co-IP mass spectrometry count is 5.

**Q.** And the co-IP mass spectrometry count (S100A7 (human))?
**A.** Its co-IP mass spectrometry count is 2.

**Q.** What about the co-IP mass spectrometry count (SYNCRIP (human)) of the same substance?
**A.** Its co-IP mass spectrometry count is 6.

**Q.** And the co-IP mass spectrometry count (GBF1 (human))?
**A.** The co-IP mass spectrometry count was 0.

**Q.** What about the co-IP mass spectrometry count (YBX1 (human)) of the same substance?
**A.** The co-IP mass spectrometry count was 3.

**Q.** What about the co-IP mass spectrometry count (EIF3A (human)) of the same substance?
**A.** Its co-IP mass spectrometry count is 3.

**Q.** What about the co-IP mass spectrometry count (RPS14 (human)) of the same substance?
**A.** The co-IP mass spectrometry count was 9.

**Q.** What about the co-IP mass spectrometry count (RHOT2 (human)) of the same substance?
**A.** Its co-IP mass spectrometry count is 0.

**Q.** What about the co-IP mass spectrometry count (SYNM (human)) of the same substance?
**A.** The co-IP mass spectrometry count was 5.

**Q.** What about the co-IP mass spectrometry count (RACK1 (human)) of the same substance?
**A.** The co-IP mass spectrometry count was 0.

**Q.** What about the co-IP mass spectrometry count (TELO2 (human)) of the same substance?
**A.** Its co-IP mass spectrometry count is 0.

**Q.** And the co-IP mass spectrometry count (PPFIBP1 (human))?
**A.** The co-IP mass spectrometry count was 0.
